The target in assay [1] is CAV20 non-structural protein 2C^ATPase (wt) (coxsackie A virus 20 (CAV20)). Briefly: co-IP.
For assay [2], the target named is T1, PV GST-2C^ATPase (poliovirus (PV; the paper's PV is type …, UniProt P03300 1128-1456).
T1 sequence: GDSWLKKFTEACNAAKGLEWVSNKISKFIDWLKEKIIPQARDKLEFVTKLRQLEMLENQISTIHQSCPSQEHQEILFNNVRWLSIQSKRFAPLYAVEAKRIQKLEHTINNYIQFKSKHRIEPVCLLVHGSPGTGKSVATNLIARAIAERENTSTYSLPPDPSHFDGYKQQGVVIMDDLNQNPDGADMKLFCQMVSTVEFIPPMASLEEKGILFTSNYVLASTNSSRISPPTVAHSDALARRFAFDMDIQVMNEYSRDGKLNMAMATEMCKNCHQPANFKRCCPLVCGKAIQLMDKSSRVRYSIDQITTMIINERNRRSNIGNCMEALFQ
Description: […] (50 mM Tris-HCl pH 7.5, 140 mM NaCl, 0.1% Triton X-100, […]. The settings on record: both partners purified.

“CAV20 structural protein VP3 (wt) (natural protein)” registered a percent of the level in the CAV20 2C^ATPase and CAV20 VP3 Co-IP reaction in assay [1] of 100%.

B1: PV His-tagged VP3 (natural protein)
chain: GLPVMNTPGSNQYLTADNFQSPCALPEFDVTPPIDIPGEVKNMMELAEIDTMIPFDLSATKKNTMEMYRVRLSDKPHTDDPILCLSLSPASDPRLSHTMLGEILNYYTHWAGSLKFTFLFCGFMMATGKLLVSYAPPGADPPKKRKEAMLGTHVIWDIGLQSSCTMVVPWISNTTYRQTIDDSFTEGGYISVFYQTRIVVPLSTPREMDILGFVSACNDFSVRLLRDTTHIEQKALAQ
B1: the binding result in assay [2] is on record as “binds”.

(Values after article PMC2928791 (PLoS Pathogens, 2010).)
